Here are results for 38 molecules from patent US20190142963A1 (INDIANA UNIVERSITY RESEARCH AND TECHNOLOGY, published 2019).

Non-standard residues stand in square brackets, D forms with d. No end group written: not given here. A value given as a limit tells only on which side of the number the result lay.

One assay deals with T1, human Klotho β (human, UniProt Q86Z14 1-1044).
T1 sequence (looked up): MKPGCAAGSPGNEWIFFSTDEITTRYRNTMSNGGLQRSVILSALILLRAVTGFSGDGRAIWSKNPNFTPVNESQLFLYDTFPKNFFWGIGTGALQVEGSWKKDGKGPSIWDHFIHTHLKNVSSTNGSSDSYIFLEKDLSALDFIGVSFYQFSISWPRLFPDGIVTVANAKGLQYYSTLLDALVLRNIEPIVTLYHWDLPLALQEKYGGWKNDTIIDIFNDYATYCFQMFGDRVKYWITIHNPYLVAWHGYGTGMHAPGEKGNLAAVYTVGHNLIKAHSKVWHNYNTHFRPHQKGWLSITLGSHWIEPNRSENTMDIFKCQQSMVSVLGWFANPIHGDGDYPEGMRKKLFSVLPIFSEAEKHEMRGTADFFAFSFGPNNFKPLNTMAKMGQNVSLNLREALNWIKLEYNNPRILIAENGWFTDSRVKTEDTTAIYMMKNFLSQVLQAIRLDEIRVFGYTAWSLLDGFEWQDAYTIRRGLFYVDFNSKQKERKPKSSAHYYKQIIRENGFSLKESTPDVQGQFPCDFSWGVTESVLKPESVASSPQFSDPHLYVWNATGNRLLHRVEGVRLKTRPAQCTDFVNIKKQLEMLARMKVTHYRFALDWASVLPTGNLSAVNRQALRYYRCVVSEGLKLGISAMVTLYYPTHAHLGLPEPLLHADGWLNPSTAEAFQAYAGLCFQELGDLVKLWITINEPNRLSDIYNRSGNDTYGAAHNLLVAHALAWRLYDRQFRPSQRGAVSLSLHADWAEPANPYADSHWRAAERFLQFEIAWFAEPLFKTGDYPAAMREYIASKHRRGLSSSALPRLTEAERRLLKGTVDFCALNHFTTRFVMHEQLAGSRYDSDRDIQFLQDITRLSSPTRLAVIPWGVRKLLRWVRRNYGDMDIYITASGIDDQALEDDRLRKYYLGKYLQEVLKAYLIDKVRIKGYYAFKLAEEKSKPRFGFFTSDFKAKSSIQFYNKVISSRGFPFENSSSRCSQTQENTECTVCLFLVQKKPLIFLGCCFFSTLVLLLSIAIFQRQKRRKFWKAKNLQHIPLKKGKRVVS
The assay is described as follows: cell-based or functional assay.
Turning to “FGF19 169-194 alanine mutant M175 (from UniProt O95750 191-216) (peptide)”, the IC-50 of antagonism of FGF21 (pErk1/2, 293 HEK hKLB cells) is 0.15 µM. As to “FGF19 169-194 alanine mutant D173 (from UniProt O95750 191-216) (peptide)”, the IC-50 of antagonism of FGF21 (pErk1/2, 293 HEK hKLB cells) was found to be 0.46 µM. With “FGF19 169-194 alanine mutant T172 (from UniProt O95750 191-216) (peptide)”, the IC-50 of antagonism of FGF21 (pErk1/2, 293 HEK hKLB cells) stood at 1.4 µM.

Turning to “FGF19 169-194 K194S (from UniProt O95750 191-216) (peptide)”, the IC-50 of antagonistic activity (FIG. 8A) was found to be 22.3 nM.

The molecule “FGF19 169-194 alanine mutant V181 (from UniProt O95750 191-216) (peptide)” displayed an IC-50 of antagonism of FGF21 (pErk1/2, 293 HEK hKLB cells) of 1.81 µM.

“FGF19 169-194 alanine mutant F192 (from UniProt O95750 191-216) (peptide)” showed an IC-50 of antagonism of FGF21 (pErk1/2, 293 HEK hKLB cells) of 2.97 µM. “FGF19 169-194 alanine mutant S189 (from UniProt O95750 169-194) (peptide)” came in with an IC-50 of antagonism of FGF21 (pErk1/2, 293 HEK hKLB cells) of over 2 µM. Same read-out and setting: the figure for “FGF19 169-194 alanine mutant G179 (from UniProt O95750 191-216) (peptide)” is 1.93 µM; for “FGF19 169-194 alanine mutant S174 (from UniProt O95750 191-216) (peptide)” it is 3.39 µM. “FGF19 169-194 alanine mutant T182 (from UniProt O95750 191-216) (peptide)” returned an IC-50 of antagonism of FGF21 (pErk1/2, 293 HEK hKLB cells) of 0.52 µM. Turning to “FGF19 169-194 alanine mutant R188 (from UniProt O95750 191-216) (peptide)”, the IC-50 of antagonism of FGF21 (pErk1/2, 293 HEK hKLB cells) was determined as 0.38 µM.

Turning to “FGF19 169-194 alanine mutant E171 (from UniProt O95750 191-216) (peptide)”, the IC-50 of antagonism of FGF21 (pErk1/2, 293 HEK hKLB cells) worked out at 0.12 µM.

Turning to “FGF19 169-194 alanine mutant E193 (from UniProt O95750 169-194) (peptide)”, the IC-50 of antagonism of FGF21 (pErk1/2, 293 HEK hKLB cells) came out at 0.85 µM. Molecule “FGF19 169-194 K194L (from UniProt O95750 191-216) (peptide)” yielded an IC-50 of antagonistic activity (FIG. 8A) of 17.3 nM. “FGF19 169-194 alanine mutant L170 (from UniProt O95750 191-216) (peptide)” came in with an IC-50 of antagonism of FGF21 (pErk1/2, 293 HEK hKLB cells) of 2.17 µM. The same measure, in the same setting: the value for “FGF19 169-194 alanine mutant P169 (from UniProt O95750 191-216) (peptide)” was 0.21 µM; that for “FGF19 169-194 alanine mutant G183 (from UniProt O95750 191-216) (peptide)” was 0.4 µM.

“FGF19 169-194 alanine mutant P190 (from UniProt O95750 191-216) (peptide)” came in with an IC-50 of antagonism of FGF21 (pErk1/2, 293 HEK hKLB cells) of over 2 µM. Take “FGF19 169-194 K194E (from UniProt O95750 191-216) (peptide)”: the IC-50 of antagonistic activity (FIG. 8A) is 87.9 nM. Molecule “FGF19 169-194 alanine mutant S191 (from UniProt O95750 191-216) (peptide)” had an IC-50 of antagonism of FGF21 (pErk1/2, 293 HEK hKLB cells) of over 2 µM.

In the case of “FGF19 169-194 alanine mutant L184 (from UniProt O95750 191-216) (peptide)”, the IC-50 of antagonism of FGF21 (pErk1/2, 293 HEK hKLB cells) came to 0.2 µM.

In turn, “FGF19 K194A (from UniProt O95750 25-216) (ligand)” gave a % maximal activity, Erk1/2 phosphorylation in 293T HEK hKLB cells (FIG. 9B) of 31% and an EC-50 of Erk1/2 phosphorylation in 293T HEK hKLB cells (FIG. 9B) of 8.1 nM. Take “FGF19 169-194 alanine mutant V187 (from UniProt O95750 191-216) (peptide)”: the IC-50 of antagonism of FGF21 (pErk1/2, 293 HEK hKLB cells) was found to be 0.69 µM. Molecule “FGF19 169-194 (from UniProt O95750 169-194) (peptide)” returned an IC-50 of antagonism of FGF21 (pErk1/2, 293 HEK hKLB cells) of 0.27 µM and an IC-50 of antagonistic activity (FIG. 8B) of 0.05 µM. Regarding “FGF19 169-194 alanine mutant E185 (from UniProt O95750 191-216) (peptide)”, the IC-50 of antagonism of FGF21 (pErk1/2, 293 HEK hKLB cells) amounted to 0.43 µM.

The next assay concerns the target T1, human Klotho β. The assay is described as follows: cell-based or functional assay. The source holds these as a separate data set.
Consider PLETDSMDPFGLVTGLEAVRSPSFEA [FGF19 169-194 K194A], for which the “IC-50 of antagonism of FGF21 (pErk1/2, 293 HEK hKLB cells)” value came out at 0.005 µM. On the same count and under the same terms, the value for PPDVASSDPLSMVGPSQGRSPSYAS [FGF21 25mer A5] was 0.09 µM.

A further assay has as its target T1, human Klotho β. Description: cell-based or functional assay. This is another data set of the same source.
In the case of PPDVASSDPLSMVGPSQGRSPSYAS [FGF21 25mer A5], the “% max activity of antagonism of FGF21 (pErk1/2, 293 HEK hKLB cells)” value was determined as 102% and the “IC-50 of antagonism of FGF21 (pErk1/2, 293 HEK hKLB cells)” value came to 90.1 nM.

In a further assay the target is T1, human Klotho β. Description: cell-based or functional assay. The source holds these as a separate data set.
Regarding [dP]PDVGSSDPLSMVGPSQGRSPSYAS-NH2 [FGF21 C25 d1], the “% Activity vs C25” value is 54.2% and the “IC50 of antagonism of FGF21 (assay of Example 1)” value (“IC50 of antagonism of FGF21” for short) came out at 877 nM. PPDVGSSDPLSMVGPSQGR[dS]PSYAS-NH2 [FGF21 C25 d20]: the “% Activity vs C25” value worked out at 2.3% and the “IC50 of antagonism of FGF21” value is 33700 nM. In the same order, the values of PPDVG[dS]SDPLSMVGPSQGRSPSYAS-NH2 [FGF21 C25 d6] are 32.5% and 1980 nM. In the same order, the values of PPDVGSSDPLSMVGPSQGRSPSYA[dS]-NH2 [FGF21 C25 d25] are 119% and 264 nM.

Consider PPDVGSSDPLSMVGP[dS]QGRSPSYAS-NH2 [FGF21 C25 d16], for which the “% Activity vs C25” value was 46% and the “IC50 of antagonism of FGF21” value worked out at 531 nM.

On to PPDVGSSDPLSMVGPSQGRSPSY[dA]S-NH2 [FGF21 C25 d24], for which the “% Activity vs C25” value is 32.3% and the “IC50 of antagonism of FGF21” value was determined as 1130 nM. As to P[dP]DVGSSDPLSMVGPSQGRSPSYAS-NH2 [FGF21 C25 d2], the “% Activity vs C25” value is 7.61% and the “IC50 of antagonism of FGF21” value is 4720 nM. On to PPDVGSSDPLSMVGPSQGRS[dP]SYAS-NH2 [FGF21 C25 d21], for which the “% Activity vs C25” value came out at 3.8% and the “IC50 of antagonism of FGF21” value was found to be 7800 nM. The matching figures for PPDVGSSDPLSMVGPS[dQ]GRSPSYAS-NH2 [FGF21 C25 d17]: 90.3% and 262 nM. The matching figures for PPDVGSSDPLSMVG[dP]SQGRSPSYAS-NH2 [FGF21 C25 d15]: 66.8% and 375 nM. In the same order, the values of PP[dD]VGSSDPLSMVGPSQGRSPSYAS-NH2 [FGF21 C25 d3] are 15.6% and 6100 nM.
